Source: the nanobody polyreactivity screen of Harvey et al. (2022)

Assay: yeast display, Sf9 membrane polyspecificity reagent, FACS + sequencing; frameworks hold sequencing errors
Outline: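 A nanobody's polyreactivity label depends on the gate it was sorted from. Yeast display cells were stained with 10% biotinylated, detergent-solubilized Sf9 membrane reagent for 1 hour at 4 °C, enriched on streptavidin microbeads and sorted by FACS. The low and high (top ~1%) gates were set on anti-HA fluorescence for expression and streptavidin fluorescence for reagent binding.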

Sequence | polyreactivity (PSR sort gate)
QVQVVESGGGLVQAGGSLRLSCAASGFIFNTHAMGWYRQAPGKERELVAAITWTGDSTYYADSVKGRFTISRDYAKNTVYLQMNSLKPEDTAVYYCNAATGDWETSIWTYPFWAEMYYWGQGTQVNVSS | low polyreactivity
QVQLVESGGGLVQAGGSLRLICAASGRTFFPYAMGWYRQAPGKEREFFAAISTRGGSTYYADSVKGRFTISRDNAKNTVYLQMNSLKPEDTAVYYCAARFHKKGYWVYRMDYWGQGTQVTVSS | high polyreactivity
QVQLVESGGGLVQAGGSLRLSCAASGSTFDPYAMGWYRQAPGKERELVAGISASGGSTYADSVKGRFTISRDNAKNTVYLQMNSLKPEDTACYYCAADTYLIRGPPDEEYWGQGTQVTVSS | low polyreactivity
QVQLVESGGGLVQAGGSLRLSCAASGSTFITYAMGWYRQAPGKERELVAAISTGGSTYYADSVKGRFTISRDNAKNTVYLQMNSLKPEDTAVYYCNAYSSSRGSTLQYSLQYDYWGQGTQVTVSS | low polyreactivity
QVQLVESGGGLVQAGGSLRLSCAASGSNFARYAMGWYRQAPGKERELVAAINSTVSTNYADSVNGRFTISRDNPKNTVYLQMNSLKPEDTAVYYCAVDIVRGGRDSWGQGTQVTVSS | low polyreactivity
QVQLVESGGGLVQAGGSLRLSCAASGRIFGPYAMGWSRQAPGKERELVATITWRTGSTYYADSVKGRFTISRDNAKNTVYLQMNSLKPEDTEVYYSAARYGRYSKAGDYWGQGTQVTVSS | high polyreactivity
QVQLVESGGGLVQAGGSLRLSCAASGNTFGAYAMGWYRQAPGKERELVAAITWSGGRTYYADSVKGRFTISRDNAKNTVYLQMNSLKPEDTAVYYCAADYGYYRGGVRFGYWGQGTQVTVSS | high polyreactivity
QVQLVESGGGLVQAGGSLRLSCAASGYTFIVNAMGWYRQAPGKERELVAGISYRGGRTFYADSVKGRFTISRDNAKNTVYLQMTSLKPEDTAVYYCAARKTGIPFYNYDYWGQGTQVTVSS | low polyreactivity
QVQLVESGGGLDQARGSLRLSCAASGSNFRYYAIGGYRPAHGKERELVASITGSGGRTYYADSVKGRFTISLDNAKNTVYLQMNSLKPEDTAVYYCAVPYHQGNMDYWGQGTQVTVSS | high polyreactivity
QVQLVESGGGLVHAGGSLRLSCAASGRTFGKYAMGWYRQAPGKERELVAAISSGGTTYYADSVKGRFTISRDNAKNTVYLQMNSLKPEDTAVYYCAADPRYPYNYWGQGTQVTVSS | low polyreactivity
QVQLPESGGGLLQAGGGLRLSCAASGSITSTGYMGWYRPAPGKEREPVAAIAAGTTTYYADSVKARFTISRDNAKNTVYLQMNCLRPEDTAVYYCAVFTDNRLAFLYWGQGTQVTVSS | low polyreactivity
QVQLVESGGGLVQAGGSLRLSCAASGRIFRFYAMGWYRQAPGKERELVAAITYGGGTTYYADSVKGRFTISRDNAKNTVYLQMNSLKPEDTAVYYCAADHRQGYDHEYDYWGQGTQVTVSS | low polyreactivity
QVQLVESGGGLVQAGGSLRLSCAASGSTFTKYDMGWYRQAPGKERELVAAIRSGGDTNYADSVKGRFTISRDNAKNTVYLQMNSLKPEDTAVYYCAAERGPTNHTSYPWYEYHYWGQGTQVTVSS | low polyreactivity
QVQLVESGGGLVQAGGSLRLSCAASGGTFGPYAMGWYRQAPGKERELVATIRSSGGRTYYADSVKGRFTISRDNAKNTVYFQMNSLKPEDTAVYYCAATEFRYFEGGAYFEGYYWGQGTQVTVSS | low polyreactivity
QVQLVESGGGLVQAGGSLRLSCAASGSIFGNYVMGWYRQAPGKERELVAAITSDGSTYYADSVKGRFTISRDNAKNTVYLQMNSLKPEDTAVYYCNAVYEGLQSRWYKGGLYSFDYWGQGTQVTVSS | low polyreactivity
QVQLVESGGGLVQAGGSLRLSCAASGSIFYYNAMGWYRQAPGKEREFVAAIRTRGDSTYYADSVKGRFTISRDNAKNTVYLQMNSLKPEDTAVYYCAARHYGGDGNKYYYWGHGTQVTVSS | high polyreactivity
QVQLVESGGGLVQAGGSLGLSCAASGSIFEPYVMGWYRPAPGKERELVAAISESGDTTYYADSVKGRFTISRDNAKNTVYLQRNSLKPEDTAVYYCNAEDPSIDGWWRVGEYDYWGQGTQVTVSS | low polyreactivity
QVQLVESGGGLVQAGGSLRLSCAASGLTFYYYAMGWYRQAPGKERELVAAISRSGGSTYYADSVKGRFTISRDNAKNTVYLQMNSLKPEDTAVYYCAAYGPASVYEVAMDYWGQGTQVTVSS | high polyreactivity
QVQLVESGGGLVQAGGRLRLSCAASGIIFRGNPMGRYRQAPGKERELVAAIARRGGRTYYADSVKGRFTISRDNAKNTVYLQMNCLKAEDTAVYFCAAGELGDYWGQGTQVTVSS | high polyreactivity
QVQLVESGGGLVQAGGSLRLSCAASGSTLHVYVMGWYRQAPGKERELVAAISYSGGITYYADSVKGRFTISRDNAKNTVYLQMNSLKPEDTAVYYCAARIISYRVRGKSRHDYWGQGTQVTVSS | low polyreactivity
QVQLVESGGGLVQAGGSLRLSCAASGYTFGYYTMGWYRQAPRKERELVASIDSGGGTNYADSVKGRFTISRDNAKNTVYLQMNSLKPEDTAVYYCAAESPLYWVDDFESGWRYYYWGQGTQVTVSS | low polyreactivity
QVQLVESGGGLVQAGGSLRLSCAASGITIYKYAMGWYRQAPGKERELVAAITRGGSTYYADSVKGRFTISRDNAKNSVYLQMNSLKPEDTAVYYCNKVYHWQTPGFGYGYWGQGTQVTVSS | high polyreactivity

Sequence | polyreactivity (PSR sort gate)
QVQLVESGGGLVQAGGSRRLSCAASGGTFYYYAMGWYRQAPGKERELVAAIRGSGGSTYYADSVKGRFPISRDNAKNTVYLQMNSLKPVDTAVYYCATRGGYPKGYGYLAFNYWGQGTQVTVSS | high polyreactivity
QVQLVESGGGLVQAGGSLRLSCAASGIIFTANVMGWYRHAPGKERELDAVISLSGGITFYADSVKGRFTISRDNAKNTVYLQMNSLKPEDTAVYYCAAEPWYSWKTEEDYWGQGTQVTVTS | low polyreactivity
QVQLVESGGRLVQAGGSLRLSCAASGLIFADYTMGWYRQAPGKERELVAVITDGDSTYYADSVKGRFTISRDNAKNTVYLQMNSLKPEDTAVYYCAARSAILKSGYLMDYWGQGTQVTVSS | low polyreactivity
QVQLVESGGGLVQAGGSLRLSCAASGRTFYTYAMGWYRQAPGKERELVAAISSSGSTYYADSVKGRFTISRDNAKNTVYLQMNSLKPEDTAVYYCNARTSRYRRGGDSWGQGTQVTVSS | high polyreactivity
QVQLVESGGGLVQAGGSLRLSCAASGSTLRGNARGCYRQAPGKEREFVAAISSSGGRTYYADSVKGRFTISRDNAKNTVYLQMTSLNPEDTAVYYCAAAGYQYYFSSVPRAYYYWGQGTLVTVSS | high polyreactivity
QVQLVESGGGLVQAGGSLRLSCAASGRTFLPNAMGWYRQAPGKERELVAVITSGGSTNYADSVKGRFTISRDNAKNTVYLQMNSLKPEDTAVYYCASRRWSSSQGHWGKSAGYGYWGQGTQVTVSS | low polyreactivity
QVQLVESAGGLVQAGGSLRLSCAASGRIFSRYAMGWYRQAPGKERELVAAITQSGTSTYYADSVKGRFTISRDNAKNTVYLQMNSLKPEDTAVYYCNAYRQYRYDYWGQGTQVTVSS | low polyreactivity
QVQLVESGGGLVQAGGSLRLSCAASGLTFVVYAMGWYRQATGKERELVASITSSGGRTYYADSVKGRFTISRDNAKNTVYLQMTSLKPEDTAVYYCAAVRRRTRYGYRYDYWGQGTQVTVSS | high polyreactivity
QVQLVESGGGLVQAGGSLRLSCAASGIIYIGNAMGWYRQAPGKERELVAAITYTGGSTYYADSVKGRFTISRDNAKNTVYLQMNSLKPEDTAVYYCDFDRTHLEDDYWGQGTQVTVSS | low polyreactivity
QVLLVESGGGLVQAGGSLRLSCAASGISIRAKAMGGYRQAPGKVRELVAAITWSGGDPYYADSVKGRFTISRDNAKNTVYLQMNSLKPEDTAVYYCNALQPGLGSPLGEYDYWGQGTQVTVSS | low polyreactivity
QVQLGESGRGLVPAGGSLRLSCASSGSIFDRNARGWYRQAPGKERELVAAISSRGGSTYYADSVKGRFTISRDNAKNTVYLQMNSLKPEDTAVYYCNKVRTYGYDYWGQGTQVTVSS | high polyreactivity
QVQLVESAAGLVQAGGSLRLSCAASGFIFQYYAMGWYRQAPGKERELVAAINRGGGTHYADSVKGRFTISRDNAKNTVYLQMNSLKREDTAVYYCNKVYYWPGSRPSRYEYWGQGTQVTVSS | low polyreactivity
QVQLVESGGGLVQAGGSLRLSCAASGLTFVYYAMGWYRQAPGKERELVAVISSSGGSTYYADSVKGRFTISRDNAKNTVYLQMNSLKPEDTAVYYCAAPRQVYYQTDNDYWGQGTLVTVSS | high polyreactivity
QVQLVESGGGLVQAGGSLRLSCAASGSIFVYYAMGWYRQAPGKEREFVATISSSGGSTYYADSVKGRFTISRDNAKNTVYLQRNSLKPEDTAVYYCNRRYFFFYGHSFDYWGQGTQVTVSS | high polyreactivity
QVQLVESGGGLVQAGGSLRLSCAASGSIFHGNAMGWYRQAHGKERELVAVISDGGSTDYADSVKGRFTISRDNANNSVYLQMTSLKPEDTAVYYCNAAYDTQYFYRKHIYYLSGYDYWGQGTQVTVSS | low polyreactivity
QVQLVESGGGLVQAGGRLRLSCAASGNIFHYNAMGGSRQAPGKERELVAAITWSGGNTYYADSVKGRFTISRDNAKNTVYLQLNSLKPEDTAVYYCAAEFPQRATGGRYKTEYDYWGQGTQVTVSS | low polyreactivity
QVQLVESGGGLVQAGGSLRLSCAASGRTFVTYAMGWYRQAPGKERELVAAISKRGSRTYYADSVKGRFTISRDNAKNTVYLQMNSLKPEDTAVYYCNADPYRTSYDYWGQGTQVTVSS | high polyreactivity
QVQLVESGGGLVQAGGSLRLSCAASGFTFASYAMGWYRQAPGKEREFVAAITRSGGSTYYADSVKGRFTISRDNAKNTVYLQMNSLKPEDTAVYYCNRVTSSEFDYWGQGTQVTVSS | high polyreactivity
QVQLVESGGGLVQAGGSLRLSCAASGSTFGYNAMGWYRQAPGKERELVAAIRISGGTTYYADSVKGRFTSSRDNAKNTVYLQMNSPKPSDTAVYYCAAGTAGTTGSPKFSGYGYDYWGQGTQVTVSS | low polyreactivity
QVQLVESGGGLVQAGGSLRLSCAASGRIFWYYAMGWYRQAPGKERELVARISSSGGSTYYADSVKGRFTISRDNAKNTVYLQMNSLKPEDTAVYYCAAEHYILYDYLWAYDYWGQGTQVTVSS | high polyreactivity
QDQLVQSGGGLVQAGGSLRLSCAASGRTFGKYAMGWYRQAPGKERELVAAITGGGGTKYADSVKGRFTISGDNAKNSVYLQMNSLKPEDTAVYYCAAASGSRRHGYWGQGTQVTVSS | high polyreactivity
